# Measurements from patent US20200087373A1 (UNIVERSITY OF COPENHAGEN, published 2020).
# Ends that are not written are not given here. * marks the point of attachment. C16 diacid = O=C(O)CCCCCCCCCCCCCCC(=O)*; Stearoyl = CCCCCCCCCCCCCCCCCC(=O)*; Palmitoyl = CCCCCCCCCCCCCCCC(=O)*; Myristoyl = CCCCCCCCCCCCCC(=O)*; Lauroyl = CCCCCCCCCCCC(=O)*
# T1: human GIP receptor (human, UniProt P48546 22-466)
# T1 construct: whole, on cells; Transiently transfected COS-7 cells expressing the human GIP receptor; also called hGIPR
# T1 sequence (looked up): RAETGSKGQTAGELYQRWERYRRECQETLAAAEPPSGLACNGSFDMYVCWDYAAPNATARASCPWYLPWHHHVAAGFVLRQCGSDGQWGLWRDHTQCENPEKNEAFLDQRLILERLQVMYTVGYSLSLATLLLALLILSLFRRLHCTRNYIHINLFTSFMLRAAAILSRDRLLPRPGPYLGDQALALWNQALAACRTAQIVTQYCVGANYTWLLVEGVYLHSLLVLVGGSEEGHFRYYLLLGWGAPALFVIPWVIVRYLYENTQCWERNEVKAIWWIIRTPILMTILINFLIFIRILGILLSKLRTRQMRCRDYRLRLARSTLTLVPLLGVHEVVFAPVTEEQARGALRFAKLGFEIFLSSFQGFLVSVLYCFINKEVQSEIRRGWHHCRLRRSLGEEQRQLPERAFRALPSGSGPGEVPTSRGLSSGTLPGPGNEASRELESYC
# B1: AT116 [hGIP(3-30)NH2-C12/18] (H18K) (peptide)
# peptide: EGTFISDYSIAMDKIK(Lauroyl)QQDFVNWLLAQK-NH2
# modifications: N-terminus assumed
# SMILES: CCCCCCCCCCCC(=O)NCCCC[C@H](NC(=O)[C@@H](NC(=O)[C@H](CCCCN)NC(=O)[C@H](CC(=O)O)NC(=O)[C@H](CCSC)NC(=O)[C@H](C)NC(=O)[C@@H](NC(=O)[C@H](CO)NC(=O)[C@H](Cc1ccc(O)cc1)NC(=O)[C@H](CC(=O)O)NC(=O)[C@H](CO)NC(=O)[C@@H](NC(=O)[C@H](Cc1ccccc1)NC(=O)[C@@H](NC(=O)CNC(=O)[C@@H](N)CCC(=O)O)[C@@H](C)O)[C@@H](C)CC)[C@@H](C)CC)[C@@H](C)CC)C(=O)N[C@@H](CCC(N)=O)C(=O)N[C@@H](CCC(N)=O)C(=O)N[C@@H](CC(=O)O)C(=O)N[C@@H](Cc1ccccc1)C(=O)N[C@H](C(=O)N[C@@H](CC(N)=O)C(=O)N[C@@H](Cc1c[nH]c2ccccc12)C(=O)N[C@@H](CC(C)C)C(=O)N[C@@H](CC(C)C)C(=O)N[C@@H](C)C(=O)N[C@@H](CCC(N)=O)C(=O)N[C@@H](CCCCN)C(N)=O)C(C)C
# B2: AT143 [hGIP(3-30)NH2[M14L; H18K]-C16/18] (peptide)
# peptide: EGTFISDYSIALDKIK(Palmitoyl)QQDFVNWLLAQK-NH2
# modifications: N-terminus assumed
# SMILES: CCCCCCCCCCCCCCCC(=O)NCCCC[C@H](NC(=O)[C@@H](NC(=O)[C@H](CCCCN)NC(=O)[C@H](CC(=O)O)NC(=O)[C@H](CC(C)C)NC(=O)[C@H](C)NC(=O)[C@@H](NC(=O)[C@H](CO)NC(=O)[C@H](Cc1ccc(O)cc1)NC(=O)[C@H](CC(=O)O)NC(=O)[C@H](CO)NC(=O)[C@@H](NC(=O)[C@H](Cc1ccccc1)NC(=O)[C@@H](NC(=O)CNC(=O)[C@@H](N)CCC(=O)O)[C@@H](C)O)[C@@H](C)CC)[C@@H](C)CC)[C@@H](C)CC)C(=O)N[C@@H](CCC(N)=O)C(=O)N[C@@H](CCC(N)=O)C(=O)N[C@@H](CC(=O)O)C(=O)N[C@@H](Cc1ccccc1)C(=O)N[C@H](C(=O)N[C@@H](CC(N)=O)C(=O)N[C@@H](Cc1c[nH]c2ccccc12)C(=O)N[C@@H](CC(C)C)C(=O)N[C@@H](CC(C)C)C(=O)N[C@@H](C)C(=O)N[C@@H](CCC(N)=O)C(=O)N[C@@H](CCCCN)C(N)=O)C(C)C
# B3: AT159 [hGIP(3-30)NH2[K16R; H18K; K30R]-C16diacid/18] (peptide)
# peptide: EGTFISDYSIAMDRIK(C16 diacid)QQDFVNWLLAQR-NH2
# modifications: N-terminus assumed
# SMILES: CC[C@H](C)[C@H](NC(=O)[C@H](CO)NC(=O)[C@H](Cc1ccc(O)cc1)NC(=O)[C@H](CC(=O)O)NC(=O)[C@H](CO)NC(=O)[C@@H](NC(=O)[C@H](Cc1ccccc1)NC(=O)[C@@H](NC(=O)CNC(=O)[C@@H](N)CCC(=O)O)[C@@H](C)O)[C@@H](C)CC)C(=O)N[C@@H](C)C(=O)N[C@@H](CCSC)C(=O)N[C@@H](CC(=O)O)C(=O)N[C@@H](CCCNC(=N)N)C(=O)N[C@H](C(=O)N[C@@H](CCCCNC(=O)CCCCCCCCCCCCCCC(=O)O)C(=O)N[C@@H](CCC(N)=O)C(=O)N[C@@H](CCC(N)=O)C(=O)N[C@@H](CC(=O)O)C(=O)N[C@@H](Cc1ccccc1)C(=O)N[C@H](C(=O)N[C@@H](CC(N)=O)C(=O)N[C@@H](Cc1c[nH]c2ccccc12)C(=O)N[C@@H](CC(C)C)C(=O)N[C@@H](CC(C)C)C(=O)N[C@@H](C)C(=O)N[C@@H](CCC(N)=O)C(=O)N[C@@H](CCCNC(=N)N)C(N)=O)C(C)C)[C@@H](C)CC
# B4: AT158 [hGIP(3-30)NH2[H18K]-C16diacid/18] (peptide)
# peptide: EGTFISDYSIAMDKIK(C16 diacid)QQDFVNWLLAQK-NH2
# modifications: N-terminus assumed
# SMILES: CC[C@H](C)[C@H](NC(=O)[C@H](CO)NC(=O)[C@H](Cc1ccc(O)cc1)NC(=O)[C@H](CC(=O)O)NC(=O)[C@H](CO)NC(=O)[C@@H](NC(=O)[C@H](Cc1ccccc1)NC(=O)[C@@H](NC(=O)CNC(=O)[C@@H](N)CCC(=O)O)[C@@H](C)O)[C@@H](C)CC)C(=O)N[C@@H](C)C(=O)N[C@@H](CCSC)C(=O)N[C@@H](CC(=O)O)C(=O)N[C@@H](CCCCN)C(=O)N[C@H](C(=O)N[C@@H](CCCCNC(=O)CCCCCCCCCCCCCCC(=O)O)C(=O)N[C@@H](CCC(N)=O)C(=O)N[C@@H](CCC(N)=O)C(=O)N[C@@H](CC(=O)O)C(=O)N[C@@H](Cc1ccccc1)C(=O)N[C@H](C(=O)N[C@@H](CC(N)=O)C(=O)N[C@@H](Cc1c[nH]c2ccccc12)C(=O)N[C@@H](CC(C)C)C(=O)N[C@@H](CC(C)C)C(=O)N[C@@H](C)C(=O)N[C@@H](CCC(N)=O)C(=O)N[C@@H](CCCCN)C(N)=O)C(C)C)[C@@H](C)CC
# B5: AT160 [hGIP(3-30)NH2[H18K]-C18/18] (peptide)
# peptide: EGTFISDYSIAMDKIK(Stearoyl)QQDFVNWLLAQK-NH2
# modifications: N-terminus assumed
# SMILES: CCCCCCCCCCCCCCCCCC(=O)NCCCC[C@H](NC(=O)[C@@H](NC(=O)[C@H](CCCCN)NC(=O)[C@H](CC(=O)O)NC(=O)[C@H](CCSC)NC(=O)[C@H](C)NC(=O)[C@@H](NC(=O)[C@H](CO)NC(=O)[C@H](Cc1ccc(O)cc1)NC(=O)[C@H](CC(=O)O)NC(=O)[C@H](CO)NC(=O)[C@@H](NC(=O)[C@H](Cc1ccccc1)NC(=O)[C@@H](NC(=O)CNC(=O)[C@@H](N)CCC(=O)O)[C@@H](C)O)[C@@H](C)CC)[C@@H](C)CC)[C@@H](C)CC)C(=O)N[C@@H](CCC(N)=O)C(=O)N[C@@H](CCC(N)=O)C(=O)N[C@@H](CC(=O)O)C(=O)N[C@@H](Cc1ccccc1)C(=O)N[C@H](C(=O)N[C@@H](CC(N)=O)C(=O)N[C@@H](Cc1c[nH]c2ccccc12)C(=O)N[C@@H](CC(C)C)C(=O)N[C@@H](CC(C)C)C(=O)N[C@@H](C)C(=O)N[C@@H](CCC(N)=O)C(=O)N[C@@H](CCCCN)C(N)=O)C(C)C
# Legend:
# [1] = target: human GIP receptor (human) (UniProt P48546); test: 125I-hGIP competition binding on hGIPR COS-7 cells; fold in affinity, paired, reference taken as GIP(3-30)NH2
# [2] = target: human GIP receptor (human) (UniProt P48546); test: 125I-hGIP(1-42) competition binding, COS-7 cells expressing human GIPR, 0.1% casein (no HSA)
# [3] = target: human GIP receptor (human) (UniProt P48546); test: ratio of IC50 with 2% HSA to IC50 with 0.1% casein, 125I-hGIP competition binding on hGIPR COS-7 cells
# [4] = target: human GIP receptor (human) (UniProt P48546); test: 125I-hGIP(1-42) competition binding, COS-7 cells expressing human GIPR, 2% HSA
# [5] = target: human GIP receptor (human) (UniProt P48546); test: cell-based or functional assay
# [6] = target: human GIP receptor (human) (UniProt P48546); test: 125I-hGIP(1-42) competition binding, COS-7 cells expressing human GIPR
# [7] = target: human GIP receptor (human) (UniProt P48546); test: 125I-hGIP competition binding, COS-7 cells expressing hGIPR
# [8] = target: T1, human GIP receptor; test: 125I-hGIP(1-42) competition binding, COS-7 cells expressing human GIPR
# Experimental: (§1) After incubation, the cells were washed twice in ice-cold binding buffer (+/−2% HSA) and lysed using 200 mM NaOH with 1% SDS for 30 min. Nonspecific binding was determined as the binding of radioactive ligand to untransfected cells.
# [9] = target: T1, human GIP receptor; test: cell-based or functional assay
# [10] = target: T1, human GIP receptor; test: 125I-hGIP(1-42) competition binding, COS-7 cells expressing human GIPR, 0.1% casein (no HSA)
# Experimental: as §1
# [11] = target: T1, human GIP receptor; test: ratio of IC50 with 2% HSA to IC50 with 0.1% casein, 125I-hGIP competition binding on hGIPR COS-7 cells
# Experimental: as §1
# [12] = target: T1, human GIP receptor; test: 125I-hGIP(1-42) competition binding, COS-7 cells expressing human GIPR, 2% HSA
# Experimental: as §1
# [13] = target: T1, human GIP receptor; test: 125I-hGIP competition binding on hGIPR COS-7 cells; fold in affinity, paired, reference taken as GIP(3-30)NH2
# Experimental: as §1
Molecule,fold (paired) [1],IC50 [2],Fold change (IC50 2% HSA / IC50 0.1% casein) [3],IC50 [4],cAMP - antagonisme IC50 [5],cAMP - antagonisme fold (paired) [5],IC50 [6],log IC50 [7],IC50 [8],cAMP - antagonisme IC50 [9],cAMP - antagonisme fold (paired) [9],IC50 [10],Fold change (IC50 2% HSA / IC50 0.1% casein) [11],IC50 [12],fold (paired) [13]
"AT162 (H18K; K30R, C18 at position 16, as printed in Table 3b) (peptide)",2.6 fold,59.8 nM,5.6 fold,336 nM,26.3 nM,0.5 fold,59.8 nM,,,,,,,,
AT129 [hGIP(5-30)NH2-C18/30] (peptide),,,,,,,,-3.9 log M,,,,,,,
"AT162, second row of Table 3b (H18K; K30R, C16 at position 16) (peptide)",9.2 fold,213 nM,3.3 fold,705 nM,213 nM,4.1 fold,213 nM,,,,,,,,
AT114 [hGIP(3-30)NH2-C18/16] (peptide),6.7 fold,115 nM,7.7 fold,881 nM,29.2 nM,2.3 fold,102 nM,,,,,,,,
B1,,,,,,,,,71.2 nM,11.9 nM,1.2 fold,61.5 nM,5.2 fold,321 nM,5 fold
B2,,,,,,,,,86.1 nM,13.3 nM,0.3 fold,86.1 nM,1.2 fold,105 nM,11 fold
B3,,,,,,,,,25 nM,5.6 nM,0.1 fold,25 nM,0.8 fold,20 nM,3 fold
B4,,,,,,,,,7.9 nM,4.5 nM,0.1 fold,7.9 nM,2 fold,16 nM,1 fold
B5,,,,,,,,,48.8 nM,36.1 nM,0.7 fold,48.8 nM,3.6 fold,175 nM,6 fold
EGTFISDYSIAMDK(Myristoyl)IHQQDFVNWLLAQK-NH2 [AT111 [hGIP(3-30)NH2-C14/16]],,,,,,,,,261 nM,21.9 nM,3.3 fold,407 nM,5.1 fold,2090 nM,31 fold
